B6: human TIGIT on cells (receptor)
chain: MMTGTIETTGNISAEKGGSIILQCHLSSTTAQVTQVNWEQQDQLLAICNADLGWHISPSFKDRVAPGPGLGLTLQSLTVNDTGEYFCIYHTYPDGTYTGRIFLEVLESSVAEHGARFQIP
notes: also called Expi293 human TIGIT over-expressing cells

What was measured:
[1] = target: B6; assay: FACS titration on human TIGIT OE Expi293 cells, binding site concentration; ± 95% CI; 'Fit: Good/Excellent'
[2] = target: T1, Cyno TIGIT-His; assay: SPR (ProteOn), Cyno TIGIT-His
T1 construct: also called cyno TIGIT monomer (prepared in-house); C-terminal HIS-tagged cyno TIGIT ECD recombinant protein
T1 sequence (ECD with C-terminal His tag, as listed by the source): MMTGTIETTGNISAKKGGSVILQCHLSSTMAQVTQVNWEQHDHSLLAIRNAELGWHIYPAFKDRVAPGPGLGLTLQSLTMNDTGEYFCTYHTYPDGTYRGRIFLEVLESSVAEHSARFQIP

[3] = target: T2, human TIGIT ECD with C-terminal polyhistidine tag (human, UniProt Q495A1 22-141); assay: KinExA equilibrium, His-tagged human TIGIT, n = 2
T2 construct: in-house or Sino Biological; also called hTIGIT-HIS; human TIGIT-HIS
T2 sequence: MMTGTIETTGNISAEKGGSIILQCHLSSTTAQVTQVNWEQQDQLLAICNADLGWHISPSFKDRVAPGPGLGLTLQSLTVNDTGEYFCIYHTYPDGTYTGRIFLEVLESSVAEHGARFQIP

[4] = target: B6; assay: FACS titration of AF647-labelled mAb on human effector memory CD8+ T cells, Donor 321
[5] = target: T2, human TIGIT ECD with C-terminal …; assay: SPR (ProteOn), Human TIGIT-His
[6] = target: T3, Mouse TIGIT-His (mouse, UniProt P86176); assay: SPR (ProteOn), Mouse TIGIT-His
T3 construct: also called mouse TIGIT monomer (prepared in-house)
T3 sequence (soluble monomer with His tag, looked up): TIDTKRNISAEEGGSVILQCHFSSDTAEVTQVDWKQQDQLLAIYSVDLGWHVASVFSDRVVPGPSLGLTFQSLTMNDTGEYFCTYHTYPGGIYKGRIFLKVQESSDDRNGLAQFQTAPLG

[7] = target: B6; assay: FACS blocking of human PVR-m2aFc binding to human TIGIT OE Expi293 cells; binding site concentration; n=1
[8] = target: B6; assay: FACS titration of AF647-labelled mAb on human effector memory CD8+ T cells, Donor 334
[9] = target: B6; assay: FACS titration of AF647-labelled mAb on human effector memory CD8+ T cells, Donor 322
[10] = target: T4, cyno TIGIT on cells (cynomolgus macaque); assay: FACS titration of AF647-labelled mAb on cyno effector memory CD8+ T cells, Cyno Donor 3; isotype gMFI subtracted
T4 construct: whole, on cells; also called Expi293 cyno TIGIT over-expressing cells

[11] = target: T4, cyno TIGIT on cells; assay: FACS titration on cyno TIGIT OE Expi293 cells, binding site concentration; ± 95% CI; 'Fit: Good'
[12] = target: T2, human TIGIT ECD with C-terminal …; assay: KinExA equilibrium, His-tagged human TIGIT, n = 1
[13] = target: B6; assay: FACS blocking of human PVR-m2aFc binding to human TIGIT OE Expi293 cells; binding site concentration; n=2
[14] = target: T4, cyno TIGIT on cells; assay: FACS titration of AF647-labelled mAb on cyno effector memory CD8+ T cells, Cyno Donor 1; isotype gMFI subtracted
[15] = target: T5, mouse TIGIT on cells (mouse, UniProt P86176 29-249); assay: FACS titration of AF647-labelled mAb on mouse CD4+CD25+Foxp3+ Tregs from Renca tumors; no unit beside the value, nM taken from the axis (binding site)
T5 construct: whole, on cells; also called mouse TIGIT over-expressing HEK cells; mouse Tregs
T5 sequence (looked up): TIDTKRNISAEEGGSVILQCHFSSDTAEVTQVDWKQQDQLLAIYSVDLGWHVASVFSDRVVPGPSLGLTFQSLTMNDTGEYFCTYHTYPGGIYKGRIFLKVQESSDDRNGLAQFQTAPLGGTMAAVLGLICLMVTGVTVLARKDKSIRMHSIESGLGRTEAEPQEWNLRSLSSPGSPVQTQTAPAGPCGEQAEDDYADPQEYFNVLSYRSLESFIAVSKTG

[16] = target: T1, Cyno TIGIT-His; assay: SPR (ProteOn), mAb captured, cyno TIGIT monomer injected
[17] = target: B6; assay: FACS KD on Expi293 human TIGIT over-expressing cells; ± 95% CI of the fit
[18] = target: T2, human TIGIT ECD with C-terminal …; assay: SPR (ProteOn), mAb captured, human TIGIT injected
[19] = target: B6; assay: FACS blocking: Expi293 human TIGIT cells pre-incubated with mAb, then human PVR-m2aFc; lower gMFI = more blocking
[20] = target: T4, cyno TIGIT on cells; assay: FACS KD on Expi293 cyno TIGIT over-expressing cells; ± 95% CI of the fit
[21] = target: T1, Cyno TIGIT-His; assay: SPR (ProteOn), mAb captured, cyno TIGIT monomer injected; kd of this row held constant
[22] = target: T6, human PVR-h1Fc (Sino Biological #10109-H20H) (human, UniProt P15151 21-343); assay: FACS titration on Expi293 human TIGIT over-expressing cells (gMFI OE:Parental); ± 95% CI; 'Fit: Fair'
T6 construct: bought; also called hPVR-hFc; Sino PVR-Fc
T6 sequence (looked up): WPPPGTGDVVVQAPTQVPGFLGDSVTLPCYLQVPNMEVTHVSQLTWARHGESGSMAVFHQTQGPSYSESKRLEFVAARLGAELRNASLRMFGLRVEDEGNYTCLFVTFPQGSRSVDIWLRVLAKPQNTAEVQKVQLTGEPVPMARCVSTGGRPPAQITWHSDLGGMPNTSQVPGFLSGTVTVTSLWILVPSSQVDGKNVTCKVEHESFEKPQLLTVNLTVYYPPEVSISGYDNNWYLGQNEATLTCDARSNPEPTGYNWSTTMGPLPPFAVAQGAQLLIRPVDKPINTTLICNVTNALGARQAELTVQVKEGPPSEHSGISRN

B1: CPA.9.086.H4(S241P) (antibody, human IgG4 S228P, lambda, V domains shown)
VH: EVQLVETGGGLIQPGRSLRLSCAASGFTFSSYAMHWVRQAPGKGLEWVAVISYAGEVKYYADSVKGRFTISRDNSKNTLYLQMNSLRAEDTAVYYCARDPLPLHYYGMDVWGQGTTVTVSS
VL: QSALTQPRSASGNPGQRVTISCSGSSSNMGRRPVNWYQQIPGTAPKLLIYSQNQRPSGVPDRFSGSQSGTSASLTISGLQSEDEAEYFCAVWDDIGRVLQLGGGTQLAVLG
For B1, the Kd [1] was 0.35 nM, the binding result [2] was “binds” and the Kd [3] was 0.000665 nM. For the same binder, the Kd [4] was 0.09 nM, the Kd [5] was 0.0023 nM and the Kd [6] was 0.663 nM. The IC50 [7] was 0.36 nM, the Kd [8] was 0.13 nM and the Kd [9] was 0.11 nM. The Kd [10] was 0.98 nM, the Kd [11] was 0.3 nM and the Kd [12] was 0.000553 nM. For the same binder, the IC50 [13] was 0.18 nM and the Kd [14] was 0.43 nM.

B2: CPA.9.083 reformatted as mouse IgG1 (antibody, V domains shown)
VH: EVQLVETGGGLIQPGRSLRLSCAASGFTFSSYAMHWVRQAPGKGLEWVAVISYDGTPVYYADSVKGRFTISRDNSKNTLYLQMNSLRAEDTAVYYCARDPLPLHYYGMDVWGQGTTVTVSS
VL: QSALTQPRSASGNPGQRVTISCSGSSSNMGRRPVNWYQQIPGTAPKLLIYSQNQRPSGVPDRFSGSQSGTSASLTISGLQSEDEAEYFCAVWDGDRRSLQLGGGTQLAVLG
notes: also called CPA.9.083 mIgG1
In the case of B2, the Kd [15] is reported as 0.4 nM.

B3: CPA.9.086 reformatted as mouse IgG1 (antibody, V domains shown)
VH: EVQLVETGGGLIQPGRSLRLSCAASGFTFSSYAMHWVRQAPGKGLEWVAVISYAGEVKYYADSVKGRFTISRDNSKNTLYLQMNSLRAEDTAVYYCARDPLPLHYYGMDVWGQGTTVTVSS
VL: QSALTQPRSASGNPGQRVTISCSGSSSNMGRRPVNWYQQIPGTAPKLLIYSQNQRPSGVPDRFSGSQSGTSASLTISGLQSEDEAEYFCAVWDDIGRVLQLGGGTQLAVLG
notes: also called CPA.9.086 mIgG1
Binder B3 has a Kd [15] of 0.68 nM.

B4: CPA.9.059 hIgG4 (antibody, V domains shown)
VH: EVQLVETGGGLIQPGGSLRLSCAASGFTVSSNYMSWVRQAPGKGLEWVSVIYSGGSTYYADSVKGRFTISRDNSKNTLYLQMNSLRAEDTAVYYCARGARYSYGQYPYWGQGTLVTVSS
VL: DIQLTQSPSFLSASVGDRVTITCRASHDISSLFSWYQQKPGKAPKLLIYAASTLQTGVPSRFSGSASGTEFTLTISSLQPEDFATYYCLQLDSFPTWTFGQGTKVEIKR
notes: phage-derived anti-TIGIT, human IgG4; also called CPA.9.059-H4
For B4, the binding result [16] was “binds”, the Kd [17] was 0.29 nM and the Kd [18] was 0.0213 nM. The “gMFI of bound PVR-m2aFc at 266 pM mAb” value [19] was 509, the “gMFI of bound PVR-m2aFc at 1.3 nM mAb” value [19] was 262 and the “gMFI of bound PVR-m2aFc at 6.7 nM mAb” value [19] was 209.

B5: CHA.9.543 (antibody, V domains shown)
VH: EVQLQQSGPELVKPGASMKISCKASGYSFTGYTMNWVRQSHGKNLEWLGLIFPYNGGTSYNQNFKGKATLTVDTSSSTAYMELLSLTSVDSAVYYCARGVRFALDYWGQGTSVSVSS
VL: DVVMTQTPLSLPVSFGDQVSISCRSSQSLANSYGNTYLSWYLHKPGQSPQLLIYEISNRFSGVPDRFSGSGSGTDFTLNISTIKPEDLGMYYCLQGTHQPWTFGGGTKLEIKR
B5 was tested, and the Kd [20] was 17.2 nM, the Kd [17] was 10.2 nM and the Kd [21] was 0.00155 nM. For the same binder, the Kd [18] was 0.0231 nM.

With B6 the Kd [22] was 10 nM.

— patent US20240075137A1 (COMPUGEN, published 2024)
